In the supplement of paper PMC10567573:
± gives the standard deviation.

Assay: protein stability index of a GFP-peptide fusion (GPS, HEK-293T) (PSI 1-6); higher = more stable
Conditions: c terminus: a fixed tail appended
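Further: 24-mer peptide tiles fused after GFP, lentivirally expressed, FACS-sorted into six equal bins by GFP/DsRed ratio, decoded by Illumina sequencing, PSI is the read-weighted mean bin number.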

Sequence	protein stability index (treatment: DMSO)	protein stability index (treatment: MLN4924 1 uM, 8 h)
QHAALGGTATRQNNWPPLPSFCPV [SCAMP3]	3.33 ± 0.28	3.39 ± 0.37
EQSLLSRWNPWSTEVPYATFTEHP [TPRG1]	3.13 ± 0.22	3.06 ± 0.16
LFDLMRRMLEFDPAQRITLAEALL [CLK3]	2.05 ± 0.6	2.19 ± 0.11
EDHGLVTCSADHLIILWKNGERES [WDR41]	3.27 ± 0.28	2.74 ± 0.21
TVLAVLEDSSRDIREALHELLCCT [INTS4]	2.43 ± 0.54	2.29 ± 0.26
AGGATAWGDLLGEDSLAALSSVPS [SNAP91]	3.99 ± 0.25	3.96 ± 0.11
VATGSQQSLAQPLPGNTTEATPRS	5.42 ± 0.44	5.28 ± 0.43
CRIQDLCAMEDHNCEQLCVNVPGS [MATN2]	3.01 ± 0.44	2.77 ± 0.32
LRGQVGGEINVEMDAAPGVDLSRI [KRT17]	3.97 ± 0.15	3.92 ± 0.16
SAVSTPSPVTRTRSLSACNKRVGM [DLC1]	4.36 ± 0.19	4.38 ± 0.16
PAPNKKRKSSKLIMELTGGGQESS [MYOZ1]	4.82 ± 0.19	4.73 ± 0.16
QDGSPTTSRRPSGTGTGPEDGRPS [PDLIM4]	5.37 ± 0.22	5.66 ± 0.16
EKNIILEEKIQVLQQQNEDLKARI [MTUS2]	4.03 ± 0.24	4.04 ± 0.23
LRSFCAWQRGLNTPEDSDPDHFDT [ADAMTS4]	4.12 ± 0.27	4.24 ± 0.2
VLRCQLSAEEVRFPVSVTQQSPAA [C2CD2L]	3.3 ± 0.34	3.45 ± 0.23
MAAMFNGNYMEAKSVLIPVYGVSK [RHOBTB3]	2.27 ± 0.35	2.12 ± 0.33
DRNTKRDVTLEASRESSKPRAVLK [PPP2R2C]	4.62 ± 0.23	4.79 ± 0.17
AGKSGTSTPTTPGSTAITPGTPPS [MAP2]	5.11 ± 0.33	5.11 ± 0.44
SWMCTRSGNMLGRHFFTSWASCLQ [WDFY1]	1.86 ± 0.32	2.33 ± 0.22
YQETMVESTFMYLTLDLPTAPLYK [USP39]	2.36 ± 0.52	2.28 ± 0.21
TDNSIKPQELLEWELVVLGKLKWN [CCND2]	2.65 ± 0.25	2.81 ± 0.33
LCAPEVISLINTRMLFWACSTNKP [FAF2]	3.04 ± 0.47	2.88 ± 0.41

Sequence	protein stability index (treatment: DMSO)	protein stability index (treatment: MLN4924 1 uM, 8 h)
TKHIHITQATETTTTRHKRTANPS [CLINT1]	4.6 ± 0.19	4.77 ± 0.13
EDQPINLCDKLPPATALGTASYPS [NOL4L]	4.6 ± 0.19	4.62 ± 0.084
MLFFLPPGQHLSDYSQLNESTTKE [FBXO34]	2.6 ± 0.25	2.61 ± 0.24
WALGCVLYELASLKRAFEAANLPA [NEK8]	2.99 ± 0.3	2.9 ± 0.46
FHRLDEPPHICWDETHFGKMGSYY [POMT2]	2.42 ± 0.51	2.36 ± 0.4
RDGRRDRYSSDTTPLLNGSSQDRM [GOSR1]	4.76 ± 0.07	4.85 ± 0.2
DRGPKGEKGEKGDRAGDASKDILL [SCARA5]	5.35 ± 0.27	4.69 ± 0.49
AENYLSGGGPGDGGGADTGTGGEE [FBXO33]	5.42 ± 0.31	5.55 ± 0.23
DVQLGDIILTATDGLFDNMPDYMI [PPTC7]	2.58 ± 0.33	2.62 ± 0.42
KLQLQLNETKSQAFVSNSPKLFCP [PLD5]	2.87 ± 0.075	2.95 ± 0.6
KCAEVIIPLLSSVNVSDRGGRTAL [ANKRD44]	2.38 ± 0.37	2.37 ± 0.16
PFDQSGLGAEESLGLLDDYLEVAK [ATF4]	4.28 ± 0.28	4.62 ± 0.24
ARQEGLTFFGTELAPVRQQELASL [PBXIP1]	3.56 ± 0.22	3.69 ± 0.48
VGKVEELIESEAPPKASEQETAKE [C18orf25]	5.53 ± 0.28	5.6 ± 0.27
TESYIARPDGDCASSLNGGNIKGI [ZC2HC1A]	4.09 ± 0.047	4.24 ± 0.21
DSDNSGGGGGGGGGGGGGGGTSSN [ANKRD17]	5.39 ± 0.31	5.58 ± 0.22
TSPTRQHHVEREKDHSSSRPSSPR [BTBD10]	5.38 ± 0.12	5.45 ± 0.092
TLDKRWRVRKEAMMGLAQIYKKYA [PDS5B]	2.23 ± 0.21	2 ± 0.14
GIGGGIGGGSSRISSVLAGGSCRA [KRT16]	3.87 ± 0.23	4.05 ± 0.24
SIGALISKAHLEKVRSYVKRALAE [ALDH8A1]	2.42 ± 0.51	2.6 ± 1.1
APQNLTRWTFEKACHPFLLGPPLV [TOR1AIP2]	2.4 ± 0.21	2.08 ± 0.18
DWASNKVMFKIGDLGHVTRISSPQ [WEE1]	2.53 ± 0.25	2.64 ± 0.41

Sequence	protein stability index (treatment: DMSO)	protein stability index (treatment: MLN4924 1 uM, 8 h)
EHQRSHTGERPHQCIECGKSFNRH [ZSCAN9]	3.88 ± 0.41	4.17 ± 0.41
NIRQKVKELVEFAQDDDRLREERK [CLINT1]	4.55 ± 0.17	5.01 ± 0.19
ISLALFVLPKPKVISCLEQGEEPW [ZNF75A]	3.21 ± 0.49	2.9 ± 0.56
LLPLTELSVCPLEGSREHAFQITG [PLEKHN1]	2.88 ± 0.13	2.83 ± 0.24
ISPRGAGYTFGQDISETFNHANGL [PPP2CA]	3.17 ± 0.26	3.23 ± 0.41
GTEYTCKVYPVQEALAVLEPYARL [TRIB3]	2.62 ± 0.23	2.48 ± 0.33
AQNREPESVEQLESRIVEQENAIQ [SNX8]	5.54 ± 0.063	5.52 ± 0.19
EYSKFCRMSYQDPAQLSCLPYLEH [NFE2L1]	2.52 ± 0.56	1.89 ± 0.42
KVLGNRWAEIAKMLPGRTDNAVKN [MYBL2]	2.91 ± 0.45	2.98 ± 0.24
FEPHSGEDYSRDEDHIAHIIELLG [SRPK2]	3.3 ± 0.19	3.63 ± 0.18
LAAAPEGLEDAGLDPHFVPTELWP [TEX19]	4.06 ± 0.11	4.19 ± 0.24
NDKMAEYTNSAGVPSLNAALMHTL [GOSR1]	3.44 ± 0.32	3.42 ± 0.23
EGELGEYRQKLLMFLEISSYYDPG [VPS39]	2.19 ± 0.22	2.18 ± 0.28
EPVLTQTSEQAPSSAPRDVQARML [PTPRD]	5.13 ± 0.26	5.31 ± 0.26
DGIDRWIKEIDEHAPGVPRILVGN [RAB40C]	3.81 ± 0.19	3.59 ± 0.26
MAEAEGVPTTPGPASGSTFRGRRD [RETREG3]	5.12 ± 0.39	5.22 ± 0.14
KKRLQELALALKKCKPSLPAEAEG [TMEM120A]	3.62 ± 0.48	3.34 ± 0.36
NVFKELQIMQGLEHPFLVNLWYSF [STK32A]	2.74 ± 0.55	2.49 ± 0.53
GDVCYADVYRDGTGVVEFVRKEDM [SRSF1]	4.22 ± 0.26	4.37 ± 0.042
TGEDVKVILKNSQGEEVAQRSTVF [LMNB1]	4.7 ± 0.15	4.64 ± 0.09
DRVLNYTSWSQHCPWEPQKQPPWE [SPAG8]	2.87 ± 0.2	2.96 ± 0.15
